In assay [1] the target is T1, human ROR1 Frizzled domain (hROR1-Fz) (human, UniProt Q01973 165-305).
T1 construct: Acro Biosystems, made in HEK293
Put plainly: SPR Biacore, IgG on anti-Fc, ROR1-Fz analyte. The method, then: Anti-Fc polyclonal antibodies were immobilized onto a CMS chip (GE Life Sciences) using amine coupling chemistry (from Amine Coupling Kit, GE Life Sciences). The immobilization steps were carried out at a flow rate of 25 μL/min in 1×HBS-EP+buffer (GE Life Sciences; 10× Stock diluted before use). The sensor surfaces were activated for 7 min with a mixture of NHS (0.05 M) and EDC (0.2 M). The Anti-Fc antibodies were injected over all 4 flow cells at a concentration of 25 ug/ml in 10 mM sodium acetate, pH 4.5, for 7 min. Ethanolamine (1 M, pH 8.5) was injected for 7 min to block any remaining activated groups.
Off-rate and kinetic binding experiments were performed at 25° C. using 1×HBS-EP+buffer. Test and control antibodies were injected over the anti-Fc surface at concentrations of 5-10 μg/mL for 12 seconds at a flow rate of 10 μL/min on flow cells 2, 3 and 4, followed by a buffer wash for 30 seconds at the same flow rate. […] After capturing ligand (antibody) on the anti-Fc surface, the analyte (hROR1, Fz or Kr domains, Acro Biosystems, Delaware) was bound for 180 seconds, followed by a 600 second dissociation phase at a flow rate of 50 μL/min. Between each ligand capture and analyte binding cycle, regeneration was carried out using 2 injections of 10 mM Glycine pH 2.0 for 30 seconds at 30 μL/min, followed by a 30 second buffer wash step.

In another assay the target is T2, human ROR1 (hROR1) (human, UniProt Q01973 30-937).
T2 construct: On HCT116-hROR1 transfectants, Mino cells or Ntera-2 cells, as the assay of each row says; also called receptor tyrosine kinase like orphan receptor 1
In words: flow cytometry, HCT116-hROR1 cells. The method, then: A mix of ROR1 positive and negative cells was prepared as follows. Ror1 negative cells were washed 2× in PBS then incubated in PBS containing 1 nM CellTrace™ Oregon Green488® (Life Technologies) at 37° C. for 30 minutes. Cells were then washed 2× with RPMI w/10% fetal calf serum (or FCS), washed 2× with FACS buffer (PBS+0.5% BSA), suspended thoroughly in ice-cold FACS buffer at a final concentration of 4×10^6 cells/ml and kept on ice. ROR1 positive cells were washed 2× in PBS and suspended with ice-cold FACS buffer at 4×10^6 cells/ml. ROR1 positive and negative cells were then mixed to obtain a 1-1 cell suspension and seeded at 50 μl per well on 96 well polypropylene plates. 50 μl of 6-12 point dilutions of anti-ROR1 variants starting from concentrations of ˜100-200 nM antibody was dispensed using BioMekFX (Beckman Coulter) into each well. Cells were then incubated on ice for 1 hr, washed with FACS buffer and incubated for 1 hr on ice with 50 μl FACS buffer containing 2.5 μg/ml Alexa647-conjugated Goat Anti-Human IgG dispensed using BioMekFX (Beckman Coulter). Cells were then washed 2× with FACS buffer and fixed for 10 minutes in 200 μl PBS with 2% PFA prior to fluorescence detection. Samples were acquired using a Beckton Dickinson LSRII FACS. Mean Fluorescence Intensity of ROR1 antibody binding was analyzed using FlowJo® software (Tree Star, Inc.).

These results are taken from patent publication US20240058465A1 (SUTRO BIOPHARMA, published 2024).

In general, Kd refers to the free concentration of one partner at which half of the binding sites on the other are occupied at equilibrium, for simple one-to-one binding. One may read the koff as the rate constant with which the complex falls apart. High values mean a short-lived complex, low ones a long-lived complex. The kon is a measure of how fast the partners come together.

B1: SRP2194-A01 (antibody, IgG1, V domains shown)
VH: EVQLVESGGGLVQPGGSLRLSCAASGFNITGYYIHWVRQAPGKGLEWVGYISPLAGNTYHADSVKGRFNISADTSKNTAYLQMNSLRAEDTAVYYCARDSRRYVRPMDYWGQGTLVTVSS
VL: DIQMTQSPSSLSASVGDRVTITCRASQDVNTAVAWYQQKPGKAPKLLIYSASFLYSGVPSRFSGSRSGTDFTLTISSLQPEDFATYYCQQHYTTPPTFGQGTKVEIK
notes: His/FLAG-tagged IgG1, cell-free
In assay [1], B1 had a Kd of 1.07 nM, a koff of 0.000325 s⁻¹ and an association rate constant (kon) of 304000 M⁻¹ s⁻¹. In the assay with human ROR1 (hROR1), the “Bmax (MFI)” value was 9010 MFI and binding was put at a Kd of 0.12 nM.

B2: SRP2196-A01 (antibody, V domains shown)
VH: EVQLVESGGGLVQPGGSLRLSCAASGFNITGYYIHWVRQAPGKGLEWVGQISPNSGYTYYADSVKGRFTISADTSKNTAYLQMNSLRAEDTAVYYCARDSRRYVRGWDYWGQGTLVTVSS
VL: QAVVTQESALTTSPGETVTLTCRSSTGAVTTSNYANWVQEKPDHLFTGLIGGTNKRAPGVPARFSGSLIGDKAALTITGAQTEDEAIYFCALWYSNLWVFGGGTKLTVL
notes: His/FLAG-tagged IgG1
Consider B2, for which, in the assay with human ROR1 (hROR1), the “Bmax (MFI)” value turned out to be 15800 MFI and binding was characterised by a dissociation constant (Kd) of 0.3 nM.

B3: SRP2196-A02 (antibody, V domains shown)
VH: EVQLVESGGGLVQPGGSLRLSCAASGFNITGYYIHWVRQAPGKGLEWVGQISPNSGATHDADSVKGRFTISADTSKNTAYLQMNSLRAEDTAVYYCARDSRRYVRGWDYWGQGTLVTVSS
VL: QAVVTQESALTTSPGETVTLTCRSSTGAVTTSNYANWVQEKPDHLFTGLIGGTNKRAPGVPARFSGSLIGDKAALTITGAQTEDEAIYFCALWYSNLWVFGGGTKLTVL
notes: His/FLAG-tagged IgG1
In the case of B3, in the assay with human ROR1 (hROR1), the “Bmax (MFI)” value is 15200 MFI and the Kd turned out to be 0.2 nM.

B4: SRP2194-A11 (antibody, IgG1, V domains shown)
VH: EVQLVESGGGLVQPGGSLRLSCAASGFNITQYYIHWVRQAPGKGLEWVGYISPNSGYTTDADSVKGRFTISADTSKNTAYLQMNSLRAEDTAVYYCARDSRRYVRPFDYWGQGTLVTVSS
VL: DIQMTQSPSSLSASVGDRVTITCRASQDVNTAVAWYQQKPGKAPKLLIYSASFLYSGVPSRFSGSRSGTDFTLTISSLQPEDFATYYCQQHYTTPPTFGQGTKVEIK
notes: His/FLAG-tagged IgG1, cell-free; also called Antibody 135
B4: in the assay with human ROR1 (hROR1), the “Bmax (MFI)” value amounted to 8660 MFI and the Kd was 0.1 nM.

B5: SRP2196-B05 (antibody, V domains shown)
VH: EVQLVESGGGLVQPGGSLRLSCAASGFNITGYYIHWVRQAPGKGLEWVGQISPNSGATYHADSVKGRFTISADTSKNTAYLQMNSLRAEDTAVYYCARDSRRYVRGWDYWGQGTLVTVSS
VL: QAVVTQESALTTSPGETVTLTCRSSTGAVTTSNYANWVQEKPDHLFTGLIGGTNKRAPGVPARFSGSLIGDKAALTITGAQTEDEAIYFCALWYSNLWVFGGGTKLTVL
notes: His/FLAG-tagged IgG1
For B5, in the assay with human ROR1 (hROR1), the “Bmax (MFI)” value worked out at 14800 MFI and the Kd came to 0.2 nM.

B6: SRP2194-A04 (antibody, IgG1, V domains shown)
VH: EVQLVESGGGLVQPGGSLRLSCAASGFNITGYYIHWVRQAPGKGLEWVGYISPLAGNTHHADSVKGRFTISADTSKNTAYLQMNSLRAEDTAVYYCARDSRRYVRPLDYWGQGTLVTVSS
VL: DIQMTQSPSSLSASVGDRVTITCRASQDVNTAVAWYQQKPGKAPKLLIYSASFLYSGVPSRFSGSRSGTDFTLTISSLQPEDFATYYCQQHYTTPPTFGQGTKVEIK
notes: as for B1
In assay [1], B6 displayed a Kd of 1.84 nM, a koff of 0.000364 s⁻¹ and a kon of 198000 M⁻¹ s⁻¹. In addition, in the assay with human ROR1 (hROR1), the “Bmax (MFI)” value was determined as 9050 MFI and the Kd was determined as 0.16 nM.

B7: SRP2193-B02 (antibody, IgG1, V domains shown)
VH: EVQLVESGGGLVQPGGSLRLSCAASGFNIKNSYIHWVRQAPGKGLEWVGTIDPTRGSTVHADSVKGRFTISADTSKNTAYLQMNSLRAEDTAVYYCARSRWFRVLWSYVFDYWGQGTLVTVSS
VL: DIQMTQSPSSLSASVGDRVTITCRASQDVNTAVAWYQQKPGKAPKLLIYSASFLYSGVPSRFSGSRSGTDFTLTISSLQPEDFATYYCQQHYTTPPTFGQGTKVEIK
notes: His/FLAG-tagged IgG1, cell-free; also called Antibody 77
In assay [1], B7 gave a Kd of 2.35 nM, a koff of 0.000511 s⁻¹ and a kon of 218000 M⁻¹ s⁻¹. In addition, in the assay with human ROR1 (hROR1), the “Bmax (MFI)” value amounted to 15600 MFI and binding was characterised by a dissociation constant (Kd) of 0.28 nM.

B8: SRP2193-B04 (antibody, IgG1, V domains shown)
VH: EVQLVESGGGLVQPGGSLRLSCAASGFNISNSYIHWVRQAPGKGLEWVGAIEPKNGSTHHADSVKGRFTISADTSKNTAYLQMNSLRAEDTAVYYCARSRWFRVLWTYVFDYWGQGTLVTVSS
VL: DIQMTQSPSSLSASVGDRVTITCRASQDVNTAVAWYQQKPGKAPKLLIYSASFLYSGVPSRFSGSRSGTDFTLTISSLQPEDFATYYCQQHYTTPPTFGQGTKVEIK
notes: as for B1
In assay [1], B8 displayed a Kd of 0.778 nM, a koff of 0.000134 s⁻¹ and a kon of 172000 M⁻¹ s⁻¹. Also, in the assay with human ROR1 (hROR1), the “Bmax (MFI)” value stood at 15600 MFI and the Kd is 0.4 nM.

B9: SRP2193-E11 (antibody, IgG1, V domains shown)
VH: EVQLVESGGGLVQPGGSLRLSCAASGFNINDYYIHWVRQAPGKGLEWVGGIEPNSGATVFADSVKGRFTIGADTSKNTAYLQMNSLRAEDTAVYYCARSRWYRVLWSYVFHYWGQGTLVTVSS
VL: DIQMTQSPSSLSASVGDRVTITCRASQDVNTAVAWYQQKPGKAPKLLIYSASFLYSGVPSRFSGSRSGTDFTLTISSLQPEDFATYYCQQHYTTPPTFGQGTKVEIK
notes: His/FLAG-tagged IgG1, cell-free; also called Antibody 79
In assay [1], B9 yielded a Kd of 1.28 nM, a koff of 0.000474 s⁻¹ and a kon of 370000 M⁻¹ s⁻¹. Besides, in the assay with human ROR1 (hROR1), the “Bmax (MFI)” value is 25400 MFI and the Kd was 1.33 nM.

B10: SRP2193-E01 (antibody, IgG1, V domains shown)
VH: EVQLVESGGGLVQPGGSLRLSCAASGFNIKGKYIHWVRQAPGKGLEWVGAIDPKSGSTAHADSVKGRFTISADTSKNTAYLQMNSLRAEDTAAYYCARSRWFRVLWTYVFDYWGQGTLVTVSS
VL: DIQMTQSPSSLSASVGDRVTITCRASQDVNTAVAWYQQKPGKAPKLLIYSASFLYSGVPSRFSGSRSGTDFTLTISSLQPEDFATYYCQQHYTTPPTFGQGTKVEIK
notes: His/FLAG-tagged IgG1, cell-free; also called Antibody 120
In assay [1], B10 yielded a Kd of 1.06 nM, a koff of 0.000242 s⁻¹ and a kon of 228000 M⁻¹ s⁻¹. In the assay with human ROR1 (hROR1), the “Bmax (MFI)” value was 17000 MFI and the affinity, expressed as Kd, was 0.13 nM.

B11: SRP2193-E08 (antibody, IgG1, V domains shown)
VH: EVQLVESGGGLVQPGGSLRLSCAASGFNINEYYIHWVRQAPGKGLEWVGAIDPHSGSTNFADSVKGRFTISADTSKNTAYLQMNSLRAEDTAVYYCARSRWYRVLWSYVFDYWGQGTLVTVSS
VL: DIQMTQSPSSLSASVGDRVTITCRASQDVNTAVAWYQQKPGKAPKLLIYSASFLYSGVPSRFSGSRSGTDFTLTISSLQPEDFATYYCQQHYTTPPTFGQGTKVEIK
notes: His/FLAG-tagged IgG1, cell-free; also called Antibody 87
In assay [1], B11 registered a dissociation constant (Kd) of 3.96 nM, a koff of 0.000651 s⁻¹ and a kon of 164000 M⁻¹ s⁻¹. In the assay with human ROR1 (hROR1), the “Bmax (MFI)” value turned out to be 15100 MFI and the dissociation constant (Kd) was 4.28 nM.

B12: SRP2193-C04 (antibody, IgG1, V domains shown)
VH: EVQLVESGGGLVQPGGSLRLSCAASGFNINTSYIHWVRQAPGKGLEWVGAIDPKSGSTNFADSVKGRFTISADASKNTAYLQMNSLRAEDTAVYYCARSRWFRVLWSYVLDYWGQGTLVTVSS
VL: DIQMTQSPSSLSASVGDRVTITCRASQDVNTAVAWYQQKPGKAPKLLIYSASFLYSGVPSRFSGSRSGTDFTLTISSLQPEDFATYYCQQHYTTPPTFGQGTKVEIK
notes: His/FLAG-tagged IgG1, cell-free; also called Antibody 86
For the molecule B12, in assay [1], binding was put at a Kd of 1.19 nM, the koff amounted to 0.000207 s⁻¹ and the kon stood at 173000 M⁻¹ s⁻¹. Besides, in the assay with human ROR1 (hROR1), the “Bmax (MFI)” value is 14900 MFI and the Kd came to 0.18 nM.

B13: SRP2193-D10 (antibody, IgG1, V domains shown)
VH: EVQLVESGGGLVQPGGSLRLSCAASGFNINVSYIHWVRQAPGKGLEWVATIDPNSGFTVHADSVKGRFTISADTSKNTAYLQMNSLRAEDTAVYYCARSRWFRVLWSYVFDYWGQGTLVTVSS
VL: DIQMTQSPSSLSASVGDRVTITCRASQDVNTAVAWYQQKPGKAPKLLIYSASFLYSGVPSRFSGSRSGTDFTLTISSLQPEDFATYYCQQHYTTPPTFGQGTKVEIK
notes: His/FLAG-tagged IgG1, cell-free; also called Antibody 92
For the molecule B13, in assay [1], binding was characterised by a dissociation constant (Kd) of 3.62 nM, the koff was 0.000379 s⁻¹ and the kon stood at 105000 M⁻¹ s⁻¹. In the assay with human ROR1 (hROR1), the “Bmax (MFI)” value was 14800 MFI and the Kd amounted to 0.64 nM.

B14: SRP2193-E03 (antibody, IgG1, V domains shown)
VH: EVQLVESGGGLVQPGGSLRLSCAASGFNITASYIHWVRQAPGKGLEWVGAIDPKGGSTRFADSVKGRFTISADTSKNTAYLQMNSLRAEDTAVYYCARSRWFRVLWSYVFDYWGQGTLVTVSS
VL: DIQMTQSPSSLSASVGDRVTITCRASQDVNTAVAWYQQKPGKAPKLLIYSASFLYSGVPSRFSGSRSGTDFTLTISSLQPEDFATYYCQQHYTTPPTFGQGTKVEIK
notes: His/FLAG-tagged IgG1, cell-free; also called Antibody 98
With B14, in assay [1], the affinity, expressed as Kd, was 1.14 nM; the koff was 0.000294 s⁻¹; the kon is 259000 M⁻¹ s⁻¹. In the assay with human ROR1 (hROR1), the “Bmax (MFI)” value turned out to be 14800 MFI and the Kd came to 0.19 nM.

B15: SRP2193-B03 (antibody, IgG1, V domains shown)
VH: EVQLVESGGGLVQPGGSLRLSCAASGFNIRDYYIHWVRQAPGKGLEWVGAIDPVSGSTLFADSVKGRFTISADTSKNTAYLQMNSLRAEDTEVYYCARSRWFRVLWSYVFDYWGQGTLVTVSS
VL: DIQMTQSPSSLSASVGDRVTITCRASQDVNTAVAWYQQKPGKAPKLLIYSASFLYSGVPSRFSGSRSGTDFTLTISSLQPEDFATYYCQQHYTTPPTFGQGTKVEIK
notes: His/FLAG-tagged IgG1, cell-free; also called Antibody 82
In assay [1], B15 yielded a Kd of 2.96 nM, a koff of 0.000505 s⁻¹ and a kon of 170000 M⁻¹ s⁻¹. Moreover, in the assay with human ROR1 (hROR1), the “Bmax (MFI)” value came out at 15500 MFI and the Kd stood at 0.67 nM.
